Experimental data from US10544441B2, “Method for biocatalytic whole cell reduction of dehydrocholic acid compounds, and 7-β-hydroxysteroid dehydrogenase mutants” (Pharmazell GmbH, priority 2014, dated 2020).

Tests used:
Format in all cases: biochemical
[1] = First activity assay of purified 7β-HSDH G39D with NADPH or NADH
Experimental: Enzyme activity determinations were performed at 30° C. in the microtiter plate photometer with a sample volume of 250 μL, in which the change in the NAD(P)H concentration (ε 340=6.22 mL μmol^−1 cm^−1) was monitored at a wavelength of λ=340 nm. Here, the activities were determined by linear regression in the part of the reaction proceeding linearly. For this, the sample to be tested was appropriately diluted with potassium phosphate buffer (50 mM, pH 8.0) and treated with substrate and cofactor. […]
The G39D mutant of the 7β-HSDH was produced as described in WO 2012/080504. The protein was expressed with an N-terminal His tag and purified by IMAC.

[2] = Enzyme kinetic study of 7β-HSDH mutants, DHCA kinetics with NADH as cofactor; settings: 0.5 mM NADH; for vmax (maximal specific enzyme activity): substrate DHCA
Experimental: Enzyme activity determinations were performed at 30° C. in the microtiter plate photometer with a sample volume of 250 μL, in which the change in the NAD(P)H concentration (ε 340=6.22 mL μmol^−1 cm^−1) was monitored at a wavelength of λ=340 nm. Here, the activities were determined by linear regression in the part of the reaction proceeding linearly. For this, the sample to be tested was appropriately diluted with potassium phosphate buffer (50 mM, pH 8.0) and treated with substrate and cofactor. The final concentrations of substrate and cofactor were 10 mM DHCA and 100 μM NADPH for 7β-HSDH, 10 mM DHCA and 100 μM NADH for 3α-HSDH, and 200 mM glucose and 1000 μM NAD(P) for GDH.
The mutants created were assessed by means of enzyme kinetic studies. For the study of the DHCA kinetics, 0.5 mM NADH was used as the cofactor (FIG. 9), while for the study of the NADH kinetics, 10 mM DHCA was used as the substrate (FIG. 10). From the plots of the DHCA kinetics, the characteristic curve shapes of the Michaelis-Menten kinetics can be discerned for the 7β-HSDH mutants, and no substrate inhibition was observed. Accordingly, the classical Michaelis-Menten model (equation 1) was used for the evaluation of the kinetic parameters.
[formula] EAX: specific enzyme activity, U mg^−1=μmol min^−1 mg^−1 vmax: maximal specific enzyme activity, U mg^−1=μmol min^−1 mg^−1 cs: substrate or cofactor concentration, mol L^−1 Km: half-saturation concentration, mol L^−1

[3] = Single-stage biotransformation of DHCA to 3,12-diketo-UDCA with purified NADH-dependent 7β-HSDH mutants; settings: after 16 hrs; 0.2 mg mL^−1 7β-HSDH, 10 U mL^−1 GDH, 0.5 mM NAD, 50 mM DHCA, pH 8.0, 30° C.

Molecule	NADH activity [1]	NADPH activity ([1]; 10 mM DHCA, 0.5 mM NADPH and pH 8.0)	Km [2]	vmax (maximal specific enzyme activity) [2]	vmax (maximal specific enzyme activity) ([2]; listed as 7β-HSDH DFK)	conversion of DHCA to 3,12-diketo-UDCA [3]	vmax (maximal specific enzyme activity) ([2]; listed as 7β-HSDH DFKG)
G39D: 7β-HSDH from Collinsella aerofaciens with substitution G39D, produced as described in WO 2012/080504 (protein) MNLREKYGEWGLILGATEGVGKAFCEKIAAGGMNVVMVDRREEKLNVLAGEIRETYGVETKVVRADFSQPGAAETVFAATEGLDMGFMSYVACLHSFGKIQDTPWEKHEAMINVNVVTFLKCFHHYMRIFAAQDRGAVINVSSMTGISSSPWNGQYGAGKAFILKMTEAVACECEGTGVDVEVITLGTTLTPSLLSNLPGGPQGEAVMKIALTPEECVDEAFEKLGKELSVIAGQRNKDSVHDWKANHTEDEYIRYMGSFYRD	marked NADH activity	0.040±0.005 U mg^−1	660 ± 120 µM	2.90 ± 0.16 U mg^−1			
DF: 7β-HSDH mutant with amino acid substitutions G39D R40F compared to the wild type sequence (protein) MNLREKYGEWGLILGATEGVGKAFCEKIAAGGMNVVMVDFREEKLNVLAGEIRETYGVETKVVRADFSQPGAAETVFAATEGLDMGFMSYVACLHSFGKIQDTPWEKHEAMINVNVVTFLKCFHHYMRIFAAQDRGAVINVSSMTGISSSPWNGQYGAGKAFILKMTEAVACECEGTGVDVEVITLGTTLTPSLLSNLPGGPQGEAVMKIALTPEECVDEAFEKLGKELSVIAGQRNKDSVHDWKANHTEDEYIRYMGSFYRD			420 ± 60 µM	3.70 ± 0.13 U mg^−1			
DFK: 7β-HSDH mutant with amino acid substitutions G39D R40F R41K compared to the wild type sequence (protein) MNLREKYGEWGLILGATEGVGKAFCEKIAAGGMNVVMVDFKEEKLNVLAGEIRETYGVETKVVRADFSQPGAAETVFAATEGLDMGFMSYVACLHSFGKIQDTPWEKHEAMINVNVVTFLKCFHHYMRIFAAQDRGAVINVSSMTGISSSPWNGQYGAGKAFILKMTEAVACECEGTGVDVEVITLGTTLTPSLLSNLPGGPQGEAVMKIALTPEECVDEAFEKLGKELSVIAGQRNKDSVHDWKANHTEDEYIRYMGSFYRD			290 ± 50 µM	5.91 ± 0.23 U mg^−1	5.91±0.23 U mg^−1		
G39D R40I: previously reported 7β-HSDH double mutant G39D R40I, reference, previously most active mutant (protein) MNLREKYGEWGLILGATEGVGKAFCEKIAAGGMNVVMVDIREEKLNVLAGEIRETYGVETKVVRADFSQPGAAETVFAATEGLDMGFMSYVACLHSFGKIQDTPWEKHEAMINVNVVTFLKCFHHYMRIFAAQDRGAVINVSSMTGISSSPWNGQYGAGKAFILKMTEAVACECEGTGVDVEVITLGTTLTPSLLSNLPGGPQGEAVMKIALTPEECVDEAFEKLGKELSVIAGQRNKDSVHDWKANHTEDEYIRYMGSFYRD			920 ± 170 µM	4.64 ± 0.27 U mg^−1			
DFKG: 7β-HSDH mutant with amino acid substitutions G39D R40F R41K K44G compared to the wild type sequence (protein) MNLREKYGEWGLILGATEGVGKAFCEKIAAGGMNVVMVDFKEEGLNVLAGEIRETYGVETKVVRADFSQPGAAETVFAATEGLDMGFMSYVACLHSFGKIQDTPWEKHEAMINVNVVTFLKCFHHYMRIFAAQDRGAVINVSSMTGISSSPWNGQYGAGKAFILKMTEAVACECEGTGVDVEVITLGTTLTPSLLSNLPGGPQGEAVMKIALTPEECVDEAFEKLGKELSVIAGQRNKDSVHDWKANHTEDEYIRYMGSFYRD			380 ± 50 µM	5.72 ± 0.19 U mg^−1		complete conversion	5.72±0.19 U mg^−1
